# Residue numbers refer to the chain shown, from its start. Where two headings read alike, the source gives them in different places.
# B1: 4-C08-FC1 (chimeric nanobody: 4-C08 VHH fused with human Fc mutant fragment FC1) (Fc fusion)
# chain: DVQLVESGGGLVQPGGSLRLSCAVSGFSLSSYDMNWYRQGPGKEREWVANIHSSGGYPDYADAVKGRFTISRDNAKNMVYLQMNSLKPEDTAVYYCNLPPSRRWYKDYWGQGTQVTVSSEPKSSDKTHTCPPCPAPEFEGGPSVFLFPPKPKDTLMISRTPEVTCVVVDVSHEDPEVKFNWYVDGVEVHNAKTKPREEQYNSTYRVVSVLTVLHQDWLNGKEYKCKVSNKALPASIEKTISKAKGQPREPQVYTLPPSRDELTKNQVSLTCLVKGFYPSDIAVEWESNGQPENNYKTTPPVLDSDGSFFLYSKLTVDKSRWQQGNVFSCSVMHEALHNHYTQKSLSLSPGK
# notes: built from the VHH and FC1
# B2: 4-A02-ABD-MMAE (4-A02-ABD coupled to mc-vc-MMAE) (other)
# chain: QVQLVESGGGLVQPGGSLSLSCTASETISSTYIMGWHRRSPGKERELVAVISGDGVTHYADFVKGRFVISRDNAKNAVYLKMNFLTPEDTAVYYCYAAGRWNHWGQGTQVTVSSGGGGSGGGGSGGGGSQHDEAVDANSLAEAKVLANRELDKYGVSDYYKNLINNAKTVEGVKALIDEILAALPAAACAAAHHHHHH
# modifications: mc-vc-MMAE coupled to a cysteine thiol after TCEP reduction; DAR 1; position not stated
# B3: 4-A02-ABD-MMAE: NDC of 4-A02-ABD (monomer) coupled to mc-vc-MMAE, DAR1 (conjugate)
# chain: B2 chain
# B4: 5-C12-FC1 (chimeric nanobody: 5-C12 VHH fused with human Fc mutant fragment FC1) (Fc fusion)
# chain: QVQLVESGGGLAQAGGSLRLSCAGSGRTFSTDAMGWFRQAPGKEREFVAAINWSGGSTYYADSVKGRFTISRDNAKNTVYLQMNSVKPEDTAVYYCVADSLLALLDGSRGGPGTDSDSWGQGTQVTVSSEPKSSDKTHTCPPCPAPEFEGGPSVFLFPPKPKDTLMISRTPEVTCVVVDVSHEDPEVKFNWYVDGVEVHNAKTKPREEQYNSTYRVVSVLTVLHQDWLNGKEYKCKVSNKALPASIEKTISKAKGQPREPQVYTLPPSRDELTKNQVSLTCLVKGFYPSDIAVEWESNGQPENNYKTTPPVLDSDGSFFLYSKLTVDKSRWQQGNVFSCSVMHEALHNHYTQKSLSLSPGK
# notes: built from the VHH and FC1
# B5: 4-C05-FC1 (chimeric nanobody: 4-C05 VHH fused with human Fc mutant fragment FC1) (Fc fusion)
# chain: QVQLVESGGGLVQPGGSLRLSCAASGFTLDTYAIGWIRQAPGKEREGVSCISSTDGSTYYAASVKGRFTINRDNAKNTVYLQMNSLKPEDTAVYYCAAGPGTDCPLRFDYWGQGIQVTVSSEPKSSDKTHTCPPCPAPEFEGGPSVFLFPPKPKDTLMISRTPEVTCVVVDVSHEDPEVKFNWYVDGVEVHNAKTKPREEQYNSTYRVVSVLTVLHQDWLNGKEYKCKVSNKALPASIEKTISKAKGQPREPQVYTLPPSRDELTKNQVSLTCLVKGFYPSDIAVEWESNGQPENNYKTTPPVLDSDGSFFLYSKLTVDKSRWQQGNVFSCSVMHEALHNHYTQKSLSLSPGK
# notes: built from the VHH and FC1
# B6: 5-H3-FC1 (chimeric nanobody: 5-H3 VHH fused with human Fc mutant fragment FC1) (Fc fusion)
# chain: QVQLVESGGGLVQPGGSLRLSCVASGFTLANYAIGFYRRAPGKGREGVSCISRSDGDTYHVDSVKGRFTVSRDNAKNTAYLQMNSLVPEDTGVYYCRATEWCGVQDPHGYWGQGTQVTVSSEPKSSDKTHTCPPCPAPEFEGGPSVFLFPPKPKDTLMISRTPEVTCVVVDVSHEDPEVKFNWYVDGVEVHNAKTKPREEQYNSTYRVVSVLTVLHQDWLNGKEYKCKVSNKALPASIEKTISKAKGQPREPQVYTLPPSRDELTKNQVSLTCLVKGFYPSDIAVEWESNGQPENNYKTTPPVLDSDGSFFLYSKLTVDKSRWQQGNVFSCSVMHEALHNHYTQKSLSLSPGK
# notes: built from the VHH and FC1
# B7: original nanobody 4A02 (parental antibody 4A02, as comparator in Examples 11 and 12) (Fc fusion)
# VHH: QVQLVESGGGLVQPGGSLSLSCTASETISSTYIMGWHRRSPGKERELVAVISGDGVTHYADFVKGRFVISRDNAKNAVYLKMNFLTPEDTAVYYCYAAGRWNHWGQGTQVTVSS
# notes: not shown: Fc segment of the comparator
# B8: 4-A02-FC1-MMAE (4-A02-FC1 coupled to mc-vc-MMAE) (Fc fusion)
# chain: QVQLVESGGGLVQPGGSLSLSCTASETISSTYIMGWHRRSPGKERELVAVISGDGVTHYADFVKGRFVISRDNAKNAVYLKMNFLTPEDTAVYYCYAAGRWNHWGQGTQVTVSSEPKSSDKTHTCPPCPAPEFEGGPSVFLFPPKPKDTLMISRTPEVTCVVVDVSHEDPEVKFNWYVDGVEVHNAKTKPREEQYNSTYRVVSVLTVLHQDWLNGKEYKCKVSNKALPASIEKTISKAKGQPREPQVYTLPPSRDELTKNQVSLTCLVKGFYPSDIAVEWESNGQPENNYKTTPPVLDSDGSFFLYSKLTVDKSRWQQGNVFSCSVMHEALHNHYTQKSLSLSPGK
# modifications: mc-vc-MMAE coupled to cysteine thiols after TCEP reduction; target DAR 4 for the dimer (about 95% DAR4 by HIC); positions not given
# B9: 4-A02-FC1 (chimeric nanobody: 4-A02 VHH fused with human Fc mutant fragment FC1) (Fc fusion)
# chain: B8 chain
# notes: VHH-Fc fusion expressed in HEK293; also called chimeric antibody 4-A02
# B10: 4-A02-DXd (conjugate)
# chain: B8 chain
# B11: 4-A02-FC1-DXd (4-A02-FC1 coupled to GGFG-DXd) (Fc fusion)
# chain: B8 chain
# modifications: GGFG-DXd coupled to cysteine thiols after TCEP reduction; DAR 4; positions not given
# B12: 4-E04-FC1 (chimeric nanobody: 4-E04 VHH fused with human Fc mutant fragment FC1) (Fc fusion)
# chain: B8 chain with Q1A, T23A, T27M, H37Y, A60G, V68A, A74V, Y96N, W101R
# notes: built from the VHH and FC1
# B13: F1-A01-FC1 (chimeric nanobody: F1-A01 VHH fused with human Fc mutant fragment FC1) (Fc fusion)
# chain: EVQLVESGGGLVQAGGSLRLSCAASGRAFSAYAMGWFRQAPGKEREFVAAISWSGGSTYYADSVRGRFTISRDNTKNTVYLQMNSLKPEDTAVYYCNADSLLSLLDGSRGGPGTDSGSWGQGTQVTVSSEPKSSDKTHTCPPCPAPEFEGGPSVFLFPPKPKDTLMISRTPEVTCVVVDVSHEDPEVKFNWYVDGVEVHNAKTKPREEQYNSTYRVVSVLTVLHQDWLNGKEYKCKVSNKALPASIEKTISKAKGQPREPQVYTLPPSRDELTKNQVSLTCLVKGFYPSDIAVEWESNGQPENNYKTTPPVLDSDGSFFLYSKLTVDKSRWQQGNVFSCSVMHEALHNHYTQKSLSLSPGK
# notes: it is built from the VHH and FC1 as in 4-A02-FC1
# Key:
# [1] = test system: 18 human tumor cell lines; conditions: average against 18 human tumor cell lines; cited from earlier work
# [2] = compared with MMDX and doxorubicin; cited from earlier work
# [3] = biological target: T1, TF on the surface of tumor cells (MDA-MB-231, HPAF-II, HCC1806, BxPC3, HCC44, PC9, H1975 and other … (UniProt P13726 33-295, limits assumed)); experiment: flow cytometry on MDA-MB-231 cells, PE-labeled secondary antibody
# T1 construct: whole, on cells; the cell lines are human tumour lines; also called TF on cell surface; tumor cell surface TF
# [4] = biological target: T1, TF on the surface of tumor cells …; experiment: cell-based or functional assay
# [5] = test system: HCC1954 mammary pad xenograft; experiment: HCC1954 mammary pad xenograft experiment; assay type: in vivo; conditions: once a week, twice in total
# [6] = test system: KRAS^G12D pancreatic cancer HPAF-II xenograft tumor; experiment: Pancreatic cancer HPAF-II xenograft model; assay type: in vivo, Balb/c nude mice; conditions: 3 mg/kg, single-dose, tail vein
# Experimental: Pancreatic ductal adenocarcinoma (PDAC) HPAF-II cells in logarithmic growth phase were subcutaneously inoculated into the bank of 5-week-old female Balb/c nude mice (purchased from Shanghai Sippr-BK Laboratory Animal Co., Ltd.) at a density of 2.5×10^6 cells per 200 µL serum-free medium. When tumor volume reached 100-200 mm^3, animals were randomly grouped, 8 tumors per group. The preferred TF-NDCs such as 4-A02-MMAE, 4-A02-ABD-MMAE were administered via tail vein injection at 3 mg/kg or 1 mg/kg on the day of grouping, with hIgG1-MMAE as the negative control. Only one dose was administered throughout the experiment. Tumor volume and mouse body weight were measured twice a week to plot growth curves. Tumor volume (V) was calculated using the formula: V = 1/2 × a × b^2, where a and b represent tumor length and width, respectively.
# [7] = biological target: T2, human TF extracellular domain protein (TF-ECD, Met 1-Glu 251) (human, UniProt P13726 33-251); experiment: ForteBio OCTET R2; His-tagged antigen on NTA sensor, nanobody-Fc 25-1.56 nM in solution, 25°C
# T2 construct: range 1-251; also called human TF-ECD; not shown: His tag (protein captured on an NTA sensor as 'FDYKSD-01-His')
# [8] = biological target: T2, human TF extracellular domain protein …; experiment: ForteBio OCTET R2 (called SPR), method of Example 2
# [9] = biological target: T1, TF on the surface of tumor cells …; experiment: cell-based or functional assay; remark: listed apart in the source
molecule,measurement,setting,value
CN[C@H](C(=O)N[C@H](C(=O)N(C)[C@H](/C=C(\C)C(=O)O)C(C)C)C(C)(C)C)C(C)(C)c1ccccc1 [Taltobulin],IC50,[1],2.5 nM
COc1cccc2c1C(=O)c1c(O)c3c(c(O)c1C2=O)C[C@@](O)(C(=O)CO)C[C@@H]3O[C@H]1C[C@H]2[C@H](O[C@@H]3[C@@H](OC)OCCN32)[C@H](C)O1 [PNU-159682],increase in activity,[2],3000 folds
B1,EC50,[3],50 ng/mL
B2,"Cell proliferation inhibition IC50, BxPC3 cells (MTS)",[4],0.3 ng/mL
same,"Cell proliferation inhibition IC50, H1975 cells (MTS)",[4],163 ng/mL
same,"Cell proliferation inhibition IC50, HCC44 cells (MTS)",[4],79.4 ng/mL
same,"Cell proliferation inhibition IC50, HPAF-II cells (MTS)",[4],1.3 ng/mL
same,"Cell proliferation inhibition IC50, PC9 cells (MTS)",[4],5 ng/mL
B3,inhibition of tumor growth,[5]; 3 mg/kg intravenous,significant inhibition of tumor growth and caused tumor regression
same,anti-tumor effect (tumor volume),[6],complete tumor regression
B4,EC50,[3],470 ng/mL
same,Kd,[7],0.001 nM
B5,EC50,[3],700 ng/mL
same,Kd,[7],0.2 nM
B6,EC50,[3],250 ng/mL
same,Kd,[7],0.45 nM
B7,Kd,[8],0.29 nM
B8,"Cell proliferation inhibition IC50, BxPC3 cells (MTS)",[9],0.1 ng/mL
same,"Cell proliferation inhibition IC50, HCC1806 cells (MTS)",[9],0.1 ng/mL
same,"Cell proliferation inhibition IC50, HPAF-II cells (MTS)",[9],0.7 ng/mL
same,"Cell proliferation inhibition IC50, BxPC3 cells (MTS)",[4],0.8 ng/mL
same,"Cell proliferation inhibition IC50, H1975 cells (MTS)",[4],2.2 ng/mL
same,"Cell proliferation inhibition IC50, HCC44 cells (MTS)",[4],2.2 ng/mL
same,"Cell proliferation inhibition IC50, HPAF-II cells (MTS)",[4],0.2 ng/mL
same,"Cell proliferation inhibition IC50, PC9 cells (MTS)",[4],0.4 ng/mL
B9,EC50,[3],80 ng/mL
same,Kd,[7],2.09 nM
B10,inhibition of tumor growth,[5]; 10 mg/kg intravenous,significant inhibition of tumor growth and caused tumor regression
B11,"Cell proliferation inhibition IC50, BxPC3 cells (MTS)",[4],2.5 ng/mL
same,"Cell proliferation inhibition IC50, H1975 cells (MTS)",[4],> 15000 ng/mL
same,"Cell proliferation inhibition IC50, HCC44 cells (MTS)",[4],19.1 ng/mL
same,"Cell proliferation inhibition IC50, HPAF-II cells (MTS)",[4],2.4 ng/mL
same,"Cell proliferation inhibition IC50, PC9 cells (MTS)",[4],5630 ng/mL
B12,EC50,[3],130 ng/mL
same,Kd,[7],7.04 nM
B13,EC50,[3],750 ng/mL
same,Kd,[7],4.37 nM

# Reference: patent publication EP4696714A1, “PREPARATION METHOD FOR NANOBODY TARGETING TISSUE FACTOR AND CONJUGATE AND USE THEREOF” (Fudan University, priority 2023, dated 2024)
